Test results as given in article PMC6279242 (Cell host & microbe, 2018).

Target: T1, GST-SIK1ΔN (Arabidopsis thaliana, UniProt O24527 249-836)
T1 sequence (looked up): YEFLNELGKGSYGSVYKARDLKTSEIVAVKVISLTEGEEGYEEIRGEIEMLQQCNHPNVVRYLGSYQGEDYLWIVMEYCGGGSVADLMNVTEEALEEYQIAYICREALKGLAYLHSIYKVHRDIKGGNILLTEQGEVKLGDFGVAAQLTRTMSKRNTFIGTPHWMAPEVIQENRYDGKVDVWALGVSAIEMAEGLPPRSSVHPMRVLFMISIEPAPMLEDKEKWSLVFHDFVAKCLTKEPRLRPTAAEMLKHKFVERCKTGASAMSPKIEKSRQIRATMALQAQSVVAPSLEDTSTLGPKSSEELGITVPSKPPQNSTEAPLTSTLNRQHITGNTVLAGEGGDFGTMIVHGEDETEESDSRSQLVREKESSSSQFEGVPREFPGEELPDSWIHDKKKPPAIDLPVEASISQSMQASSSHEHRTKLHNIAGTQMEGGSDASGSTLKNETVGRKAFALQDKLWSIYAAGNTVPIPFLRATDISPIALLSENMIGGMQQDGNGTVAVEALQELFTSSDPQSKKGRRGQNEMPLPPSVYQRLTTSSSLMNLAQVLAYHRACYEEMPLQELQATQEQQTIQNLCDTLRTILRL
Experiment: pull-down

binding result: binds
B1: MBP-BIK1 (enzyme, Arabidopsis thaliana, UniProt O48814 1-395, looked up)
chain: MGSCFSSRVKADIFHNGKSSDLYGLSLSSRKSSSTVAAAQKTEGEILSSTPVKSFTFNELKLATRNFRPDSVIGEGGFGCVFKGWLDESTLTPTKPGTGLVIAVKKLNQEGFQGHREWLTEINYLGQLSHPNLVKLIGYCLEDEHRLLVYEFMQKGSLENHLFRRGAYFKPLPWFLRVNVALDAAKGLAFLHSDPVKVIYRDIKASNILLDADYNAKLSDFGLARDGPMGDLSYVSTRVMGTYGYAAPEYMSSGHLNARSDVYSFGVLLLEILSGKRALDHNRPAKEENLVDWARPYLTSKRKVLLIVDNRLDTQYLPEEAVRMASVAVQCLSFEPKSRPTMDQVVRALQQLQDNLGKPSQTNPVKDTKKLGFKTGTTKSSEKRFTQKPFGRHLV
